Assay results reported in patent publication US20180327495A1.

Biological target: Trop-2 (EGP-1) (human) (UniProt P09758)
Assay: cell-based or functional assay

Chain of Trop-2 (EGP-1) (human) (P09758 27-323): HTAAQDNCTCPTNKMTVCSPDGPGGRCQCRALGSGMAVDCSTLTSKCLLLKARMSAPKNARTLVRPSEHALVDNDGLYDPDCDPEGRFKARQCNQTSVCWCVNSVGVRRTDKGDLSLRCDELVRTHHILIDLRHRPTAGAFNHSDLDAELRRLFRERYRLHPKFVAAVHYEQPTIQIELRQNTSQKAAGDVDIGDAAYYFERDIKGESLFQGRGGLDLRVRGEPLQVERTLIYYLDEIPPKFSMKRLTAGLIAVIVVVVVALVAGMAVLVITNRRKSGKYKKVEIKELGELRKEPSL

Question: For “hRS7 (anti-EGP-1 / anti-Trop-2 humanized MAb), unconjugated IgG (antibody)”, which ADCC, specific lysis (PBMC effectors, effector to target ratio 100:1, antibody at 33.3 nM) is on record?
Answer: 8.5%
